# B1: 133R0201: 64R7 variant anti-Jagged antibody; heavy chain variable region SEQ ID NO:50, light chain variable region SEQ ID NO:21 (antibody, V domains shown)
# VH: QVQLVESGGGVVQPGRSLRLSCAASGFTFSSYAMHWVRQAPGKGLEWVAAIYPDSSNKYYADSVKGRFTISRDNSKNTLYLQMNSLRAEDTAVYYCARDKYDIPDAFDIWGQGTLVTVS
# VL: DIRMTQSPSSLSASVGDRVTITCRASQGISNDLAWYQQKPGKVPRLLIYATSTLQSGVPSRFSGSGSATDFTLTISSLQPEDVATYYCQQSYNAPITFGQGTRLEIK
# modifications: 133R0201 Heavy chain variable region; 64R7 Light chain variable region
# B2: 133R0205: 64R7 variant anti-Jagged antibody; heavy chain variable region SEQ ID NO:52, light chain variable region SEQ ID NO:21 (antibody, V domains shown)
# VH: QVQLVESGGGVVQPGRSLRLSCAASGFTFSSYAMHWVRQAPGKGLEWVAAIYPASSNKYYADSVKGRFTISRDNSKNTLYLQMNSLRAEDTAVYYCARDKYDIPDAFDIWGQGTLVTVS
# VL: DIRMTQSPSSLSASVGDRVTITCRASQGISNDLAWYQQKPGKVPRLLIYATSTLQSGVPSRFSGSGSATDFTLTISSLQPEDVATYYCQQSYNAPITFGQGTRLEIK
# modifications: 133R0205 Heavy chain variable region; 64R7 Light chain variable region
# B3: 133R0203: 64R7 variant anti-Jagged antibody; heavy chain variable region SEQ ID NO:51, light chain variable region SEQ ID NO:21 (antibody, V domains shown)
# VH: QVQLVESGGGVVQPGRSLRLSCAASGFTFSSYAMHWVRQAPGKGLEWVAAISPEASNKYYADSVKGRFTISRDNSKNTLYLQMNSLRAEDTAVYYCARDKYDIPDAFDIWGQGTLVTVS
# VL: DIRMTQSPSSLSASVGDRVTITCRASQGISNDLAWYQQKPGKVPRLLIYATSTLQSGVPSRFSGSGSATDFTLTISSLQPEDVATYYCQQSYNAPITFGQGTRLEIK
# modifications: 133R0203 Heavy chain variable region; 64R7 Light chain variable region
# Experiments:
# [1] = tested on: PN17 pancreatic tumor cells; test: PN17 pancreatic tumor xenograft model; format: in vivo, NOD/SCID mice; details: antibody 15 mg/kg twice a week or gemcitabine 5 mg/kg once a week, intraperitoneally, FIG. 7
# Method: PN17 pancreatic tumor cells were injected subcutaneously into the flanks of NOD/SCID mice. 10,000 cells were injected per animal. Mice were monitored weekly and tumors were allowed to grow until they were approximately 145 mm^3. The mice were randomized into four treatment groups (n=10 mice/group) and treated with either control antibody (LZ-1), anti-Jagged 64M51, gemcitabine or a combination of 64M51 and gemcitabine. Gemcitabine was administered intraperitoneally at a dose of 5 mg/kg once a week and antibodies were administered intraperitoneally at a dose of 15 mg/kg twice a week.
# [2] = tested on: human Jagged2-induced Notch activation; test: Notch luciferase reporter assay, two cell population format; format: cell-based; details: Example 14; PC3 cells; antibody 50 to 0.2 μg/ml; FIG. 12A
# Excerpt: (§1) The ability of Jagged antibodies to inhibit Jagged-induced Notch signaling was also investigated using a two cell population assay format. One population of human PC3 cells was transfected with an expression vector encoding a full-length Notch2 receptor as well as plasmids encoding a Notch-dependent firefly luciferase reporter construct (8×CBF luciferase) and a Renilla luciferase reporter (Promega, Madison Wis.) as an internal transfection control. A second population of human PC3 cells was transfected with an expression vector encoding a full-length cDNA for either hJagged1 or hJagged2. Aliquots of the two cell populations were mixed together and incubated overnight in the presence of 64M51, 64R7 or 64R1B antibodies that were serially diluted 1:4 from 40 to 0.039 μg/ml, luciferase levels were measured 18 hours later using a dual luciferase assay kit (Promega, Madison, Wis.) with firefly luciferase activity normalized to Renilla luciferase activity. Shown is a titration of 64M51, 64R1B and 64R7 antibodies in this assay.
# (§2) The ability of Jagged antibodies 133R0201, 133R0203, 133R0205, 133R0207, 133R0208, 133R0209 and 133R0210 to inhibit Jagged-induced Notch signaling was investigated using a two cell population assay format as described above in Example 6. One population of human PC3 cells was transfected with an expression vector encoding a full-length Notch2 receptor as well as plasmids encoding a Notch-dependent firefly luciferase reporter construct (8×CBF luciferase) and a Renilla luciferase reporter (Promega, Madison Wis.) as an internal transfection control. A second population of human PC3 cells was transfected with an expression vector encoding a full-length cDNA for either hJagged1 or hJagged2. Aliquots of the two cell populations were mixed together and incubated overnight in the presence of antibodies 64R7, 133R0201, 133R0203, 133R0205, 133R0207, 133R0208, 133R0209 and 133R0210 that were serially diluted 1:3 from 50 to 0.2 μg/ml. Luciferase levels were measured 18 hours later using a dual luciferase assay kit (Promega, Madison, Wis.) with firefly luciferase activity normalized to Renilla luciferase activity. Shown in FIGS. 12A and 12B are titrations of the antibodies in this assay.
# [3] = tested on: human Jagged1-induced Notch2 activation; test: as above; format: cell-based; details: Example 14; PC3 cells; antibody 50 to 0.2 μg/ml; FIG. 12B
# Excerpt: as §1, §2
# OMP-Lu45 cells = test: Lu45 lung tumor xenograft model (Example 16); format: in vivo, NOD/SCID mice; details: FIG. 14; for reduction of tumor growth, antibody in combination with taxol relative to taxol alone: antibody 15 mg/kg twice a week plus taxol 15 mg/kg once a week
# Method: The anti-tumor activity of antibodies 64R7, 133R0201, 133R0203, 133R0205 and 133R206 was evaluated in the lung Lu45 tumor xenograft model. Dissociated OMP-Lu45 cells (50,000 per animal) were injected subcutaneously into 6-8 week old male NOD/SCID mice. Tumor growth was monitored weekly and tumor measurements were initiated once tumors were palpable. On day 41, mice with average tumor volumes of 132 mm^3 were randomized into 10 groups of 10 animals each. Animals were injected with control antibody, antibody 64R7, antibody 133R0201, antibody 133R0203, antibody 133R0205, antibody 133R0206 (all at 15 mg/kg), taxol (15 mg/kg), a combination of antibody 64R7 and taxol, a combination of antibody 133R0203 and taxol, or a combination of antibody 133R0205 and taxol. Administration of the antibodies and taxol was performed via injection into the intra-peritoneal cavity, once a week for taxol and twice a week for antibodies. Tumors were measured twice a week and tumor volume was determined using the formula ½(a×b^2); where a=length, and b=breadth. Data are expressed as mean and mean±S.E.M. Group means were compared using Student's two-tailed, unpaired t test.
# OMP-Lu42 cells = test: Lu42 lung tumor xenograft model; format: in vivo, NOD/SCID mice; details: 15 mg/kg intraperitoneally twice a week, FIG. 13
# Method: The anti-tumor activity of antibodies 64R7, 133R0203, and 133R0205 were evaluated in the lung Lu42 tumor xenograft model. Dissociated OMP-Lu42 cells (50,000 per animal) were injected subcutaneously into 6-8 week old male NOD/SCID mice. Tumor growth was monitored weekly and tumor measurements were initiated once tumors were palpable. On day 54, mice with average tumor volumes of 114 mm^3 were randomized into 4 groups of 10 animals each. Animals were injected with 15 mg/kg of either control antibody, antibody 64R7, antibody 133R0203, or antibody 133R0205. Administration of the antibodies was performed via injection into the intraperitoneal cavity, twice a week. Tumors were measured twice a week and tumor volume was determined using the formula ½(a×b^2); where a=length, and b=breadth. Data are expressed as mean and mean±S.E.M. Group means were compared using Student's two-tailed, unpaired t test.
Molecule,"tumor growth, single agent [1]","inhibition of human Jagged2-induced Notch activation, two cell population assay [2]","inhibition of human Jagged1-induced Notch activation, two cell population assay [3]","reduction in tumor growth, single agent compared to control antibody (OMP-Lu45 cells; 15 mg/kg twice a week)","reduction of tumor growth, antibody in combination with taxol relative to taxol alone (OMP-Lu45 cells)","reduction in tumor growth, single agent compared to control antibody (OMP-Lu42 cells)"
"Nc1ccn([C@@H]2O[C@H](CO)[C@@H](O)C2(F)F)c(=O)n1 [gemcitabine, reference compound]",transient initial response,–,–,–,–,–
B1,–,inhibitors,inhibitors,24%,–,–
B2,–,inhibitors,inhibitors,–,reduction of tumor growth,33%
B3,–,inhibitors,inhibitors,–,36%,28%
